# ± gives the uncertainty stated by the source.
# Assay: self-splicing fitness, log relative to wild type (ln ratio); higher = more splicing; Tetrahymena group I intron in knt gene, E. coli kanamycin selection, DiMSum; sequences stand for … in CUCUCU…GGAGGGAAAAGUUAUCAGGCAUGCACCUGGUAGCUAGUCUUUAAACCAAUAGAUUGCAUCGGUUUAAAAGGCAAGACCGUCAAAUUGCGGGAAAGGGGUCAACAGCCGUUCAGUACCAAGUCUCAGGGGAAACUUUGAGAUGGCCUUGCAAAGGGUAUGGUAAUAAGCUGACGGACAUGGUCCUAACCACGCAGCCAAGUCCUAAGUCAACAGAUCUUCUGUUGAUAUGGAUGCAGUUCACAGACUAAAUGUCGGUCGGGGAAGAUGUAUUCUUCUCAUAAGAUAUAGUCGGACCUCUCCUUAAUGGGAGCUAGCGGAUGAAGUGAUGCAACACUGGAGCCGCUGGGAACUAAUUUGUAUGCGAAAGUAUAUUGAUUAGUUUUGGAGUACUCGUGGUCG
# How it was run: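 DiMSum derived fitness as the error-weighted combination of fold changes across replicates, kanamycin versus no kanamycin, normalised to wild type. E. coli BL21(DE3) held the library, which randomised all eight P1ex-region intron nucleotides within the knt kanamycin-resistance gene on pET-22b(+). Six replicate transformations grew overnight at 37°C or 30°C on LB agar with or without 25 μg/mL kanamycin, also containing 100 μg/mL carbenicillin, 50 μM IPTG and 0.2% rhamnose, and pooled colonies were amplicon-sequenced on an Illumina HiSeq 2500.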
Sequence,self-splicing fitness (ln) (30 °C),self-splicing fitness (ln) (37 °C)
GAGUAGCAAUAUUACGAGCU,-1.64 ± 0.073,-0.0858 ± 0.11
GAGUAGCAAUAUUACGAGGG,-3.5 ± 0.44,-1.94 ± 0.28
GAGUAGCAAUAUUACGAGUC,-3.59 ± 0.34,-1.48 ± 0.27
GAGUAGCAAUAUUACGCACG,-1.77 ± 0.21,
GAGUAGCAAUAUUACGCACU,-3.18 ± 0.19,-1.34 ± 0.36
GAGUAGCAAUAUUACGCAGU,-3.14 ± 0.39,-2.03 ± 0.22
GAGUAGCAAUAUUACGCCCG,-0.892 ± 0.21,-1.03 ± 0.31
GAGUAGCAAUAUUACGCCUC,-2.22 ± 0.24,-3.01 ± 0.47
GAGUAGCAAUAUUACGCGGU,-3.68 ± 0.31,-2.78 ± 0.48
GAGUAGCAAUAUUACGGAUU,-1.41 ± 0.073,-0.46 ± 0.095
GAGUAGCAAUAUUACGGCGU,-0.448 ± 0.17,0.221 ± 0.18
GAGUAGCAAUAUUACGUAAG,-2.82 ± 0.14,0.0773 ± 0.14
GAGUAGCAAUAUUACGUAGU,-4.34 ± 0.31,-2.68 ± 0.2
GAGUAGCAAUAUUACGUAUA,-2.4 ± 0.29,-1.52 ± 0.22
GAGUAGCAAUAUUACGUAUC,-3.05 ± 0.14,-0.698 ± 0.11
GAGUAGCAAUAUUACGUCAC,-3.28 ± 0.24,
GAGUAGCAAUAUUACGUCGC,-1.31 ± 0.22,-1.42 ± 0.26
GAGUAGCAAUAUUACGUUAC,-4.57 ± 0.33,-1.57 ± 0.17
GAGUAGCAAUAUUACGUUGG,-3.06 ± 0.25,-3.3 ± 0.46
GAUAAGCAAUAUUACGACAG,-3.46 ± 0.24,-1.89 ± 0.23
GAUAAGCAAUAUUACGACGA,-0.165 ± 0.12,-0.626 ± 0.11
GAUAAGCAAUAUUACGAGGC,,-2.76 ± 0.44

Sequence,self-splicing fitness (ln) (30 °C),self-splicing fitness (ln) (37 °C)
GAUAAGCAAUAUUACGAGUC,-3.11 ± 0.27,-1.32 ± 0.17
GAUAAGCAAUAUUACGAGUU,-2.26 ± 0.14,-1.27 ± 0.16
GAUAAGCAAUAUUACGAUGA,-0.666 ± 0.097,-0.376 ± 0.11
GAUAAGCAAUAUUACGCAAG,-2.51 ± 0.25,-1.34 ± 0.21
GAUAAGCAAUAUUACGCUAC,-2.85 ± 0.4,-2.31 ± 0.34
GAUAAGCAAUAUUACGGAUG,-2.76 ± 0.11,-1 ± 0.11
GAUAAGCAAUAUUACGGGAG,-4.18 ± 0.25,-2.34 ± 0.15
GAUAAGCAAUAUUACGGGCG,-1.41 ± 0.11,-0.837 ± 0.13
GAUAAGCAAUAUUACGGUAA,-2.64 ± 0.22,-1.46 ± 0.15
GAUAAGCAAUAUUACGGUCG,-0.842 ± 0.1,0.117 ± 0.13
GAUAAGCAAUAUUACGUAUC,-3.9 ± 0.18,-2.67 ± 0.27
GAUAAGCAAUAUUACGUCCG,-4.76 ± 0.36,-2.1 ± 0.22
GAUAAGCAAUAUUACGUGCU,-2.32 ± 0.18,-1.71 ± 0.19
GAUAAGCAAUAUUACGUUAC,-2.69 ± 0.2,-2.09 ± 0.35
GAUCAGCAAUAUUACGAACU,-0.585 ± 0.056,0.06 ± 0.073
GAUCAGCAAUAUUACGAAUG,-1.15 ± 0.075,-0.0569 ± 0.11
GAUCAGCAAUAUUACGACAU,-0.0993 ± 0.012,0.102 ± 0.032
GAUCAGCAAUAUUACGACCU,-0.708 ± 0.089,-0.346 ± 0.1
GAUCAGCAAUAUUACGAGGG,-1.99 ± 0.11,-2.17 ± 0.18
GAUCAGCAAUAUUACGAGUG,-1.2 ± 0.06,-1.21 ± 0.079
GAUCAGCAAUAUUACGAUGU,-0.363 ± 0.062,0.0452 ± 0.077
